Source: patent US7566535B2, “Enhanced oligonucleotide-mediated nucleic acid sequence alteration” (University of Delaware, priority 2002, dated 2009)
“And” between values parts separate entries of the source, which are not always exact repeats. Equal entries are not always repeated. In the oligonucleotide strings, read from the 5' end, every base follows the letter of its sugar. An asterisk marks phosphorothioate; unmarked linkages are phosphodiester. Other units and linkages are bracketed, terminal groups are in braces. A string of capitals states the bases alone. d = 2'-deoxy (DNA)

Columns and labels:
pAURHYG(x)eGFP [1] = assay: Hygromycin gene correction in yeast LSY678 with or without trichostatin A
pAURHYG(x)eGFP [2] = assay: Strand bias of hygromycin gene correction in rad1 and rad10 yeast mutants
pAURNeo(−)FlAsH plasmid = assay: FlAsH fluorescence assay of neomycin phosphotransferase gene correction in yeast
[3] = system: mutant kanamycin gene in plasmid pK^Sm4021; assay: Gene repair of plasmid pK^Sm4021 in yeast cell-free extracts, kan^r/amp^r colony readout in E. coli DH10B
CYC1 gene = CYC1 gene repair in diploid yeast strains, growth on glycerol (YPG)
[4] = system: human β-globin gene in YAC; assay: Dual targeting: second-site editing of β-globin gene in YAC, SNaPshot and sequencing; conditions: HU, TSA, RAD51 overexpression
[5] = YMH51 (wild-type CYC1), 5 μg oligo
[6] = YMH55 with PYNMRE11, 5 μg oligo
[7] = YMH55 with PYNRAD51, 5 μg oligo
[8] = YMH55 with PYNRAD52, 5 μg oligo
[9] = YMH55 with PYNRAD54, 5 μg oligo
[10] = YMH55 with PYNRAD55, 5 μg oligo
[11] = YMH55 with pYN132 (empty vector), 5 μg oligo
[12] = YMH55 with pYNβ (lambda beta protein expression), 5 μg oligo

## CC(/C=C/C(=O)NO)=C\[C@@H](C)C(=O)c1ccc(N(C)C)cc1 [trichostatin A, reference compound]
pAURHYG(x)eGFP [1]; 50 μg/mL during the recovery period
  increase of efficiency of gene alteration: ≥ 3 fold
pAURHYG(x)eGFP [1]; 50 μg/mL for four hours prior to electroporation
  increase of efficiency of gene alteration: up to several-fold

B1: Kan70T: non-specific, control oligonucleotide not complementary to the target sequence, SEQ ID NO: 11 (nucleic acid)
DNA: CATCAGAGCAGCCAATTGTCTGTTGTGCCCAGTCGTAGCCGAATAGCCTCTCCACCCAAGCGGCCGGAG
modifications: listed as DNA, chemistry not given here
pAURHYG(x)eGFP [2]; rad1 mutant
  Colonies on Hygromycin: 0
pAURHYG(x)eGFP [2]; rad10 mutant
  Colonies on Hygromycin: 0

B2: KanGG: chimeric, RNA-DNA double-hairpin oligonucleotide (SEQ ID NO: 1) correcting the mutant kanamycin gene of pK^Sm4021 (nucleic acid)
chain: GCUAUUCGGCUAGGACUGGGCACAAUUUUTTGTGCCCAGTCGTAGCCGAATAGCCTCTCCUUUUGGAGAG
modifications: chimeric RNA-DNA double hairpin, segment chemistry not given here
pAURNeo(−)FlAsH plasmid; LSY678 and LSY378
  corrected cells by green fluorescence (confocal microscopy): many corrected cells
pAURNeo(−)FlAsH plasmid; strain lacking RAD52 relative to LSY678
  number of cells exhibiting green fluorescence: significant increase
[3]; 0.5 μg oligo, 1 μg plasmid, 10 μg LSY678 extract
  Relative Frequency kan^r/amp^r: 1.89 ×10^−5
[3]; 1 μg oligo, 1 μg pK^Sm4021, no extract
  Relative Frequency kan^r/amp^r: 0.002 ×10^−5
[3]; 1 μg oligo, 1 μg plasmid, 1 μg LSY678 extract
  Relative Frequency kan^r/amp^r: 0.32 ×10^−5
[3]; 1 μg oligo, 1 μg plasmid, 10 μg LSY678 extract
  Relative Frequency kan^r/amp^r: 3.66 ×10^−5 and 2.78 ×10^−5
[3]; 1 μg oligo, 1 μg plasmid, 20 μg LSY678 extract
  Relative Frequency kan^r/amp^r: 7.601 ×10^−5
[3]; 1 μg oligo, no plasmid, 20 μg LSY678 extract
  Relative Frequency kan^r/amp^r: 0.0 ×10^−5
[3]; 2.0 μg oligo, 1 μg plasmid, 10 μg LSY678 extract
  Relative Frequency kan^r/amp^r: 4.005 ×10^−5
[3]; 10 μg extract LSY386 (Δrad52)
  Relative Correction Efficiency: 25.7 and 26.7 and 19.9
[3]; 10 μg extract LSY402 (Δrad51)
  Relative Correction Efficiency: 5.15
[3]; 10 μg extract LSY407 (Δrad57)
  Relative Correction Efficiency: 2.13
[3]; 10 μg extract LSY678 (wild type)
  Relative Correction Efficiency: 1.17 and 1.08 and 1.63
[3]; 10 μg extract LSY814 (Δmsh2)
  Relative Correction Efficiency: 0.79
[3]; 10 μg extract LSY837 (Δrad59)
  Relative Correction Efficiency: 0.35
[3]; 10 μg extract XS827-18C (Δrad54)
  Relative Correction Efficiency: 1.36
[3]; 10 μg extract YDR076W (Δrad55)
  Relative Correction Efficiency: 1.27
[3]; 10 μg extract YELO37C (Δrad23)
  Relative Correction Efficiency: 1.04
[3]; LSY678 extract expressing RAD52
  level of repair below wild-type levels: 4 fold
[3]; extract LSY386•p52 (Δrad52 expressing RAD52)
  Relative Correction Efficiency: 2.31
[3]; extract LSY678•p52 (wild type expressing RAD52)
  Relative Correction Efficiency: 0.41
[3]; extracts LSY386 (2 μg) + LSY678 (8 μg)
  Relative Correction Efficiency: 2.91
[3]; extracts LSY386 (2 μg) + YELO37C (8 μg)
  Relative Correction Efficiency: 1.85
[3]; extracts LSY386 (4 μg) + LSY678 (6 μg)
  Relative Correction Efficiency: 5.45
[3]; extracts LSY386 (4 μg) + YELO37C (6 μg)
  Relative Correction Efficiency: 3.71
[3]; extracts LSY386 (6 μg) + LSY678 (4 μg)
  Relative Correction Efficiency: 10.47
[3]; extracts LSY386 (6 μg) + YELO37C (4 μg)
  Relative Correction Efficiency: 9.22
[3]; extracts LSY386 (8 μg) + LSY678 (2 μg)
  Relative Correction Efficiency: 14.36
[3]; extracts LSY386 (8 μg) + YELO37C (2 μg)
  Relative Correction Efficiency: 16.95
[3]; oligo only, no plasmid, no extract
  Relative Correction Efficiency: 0.0

B3: Cyc1/70T: modified single-stranded vector targeting the transcribed strand of mutant CYC1, three phosphorothioated linkages at each terminus, SEQ ID NO: 21 (nucleic acid)
DNA: dA*dG*dG*dTdGdCdTdAdCdAdCdTdTdTdTdCdAdAdGdAdCdTdAdGdAdTdGdTdCdTdAdCdAdAdTdGdCdCdAdCdAdCdCdGdTdGdGdAdAdAdAdGdGdGdTdGdGdCdCdCdAdCdAdTdAdAdG*dG*dT*dT
CYC1 gene; [5]
  No. of YPG Plate Colonies: lawn
CYC1 gene; YMH52, 5 μg oligo
  C.E.: 0.17 ×10^−4
  No. of YPG Plate Colonies: 57
CYC1 gene; YMH53, 5 μg oligo
  C.E.: 0.74 ×10^−4
  No. of YPG Plate Colonies: 281
CYC1 gene; YMH53 with PYNMRE11 + PYNXRS2
  Average C.E.: .263 ×10^−5
  Fold: 8.29
  No. of YPG Plate Colonies: 155
CYC1 gene; YMH53 with PYNRAD52 + PYNRAD54
  Average C.E.: .185 ×10^−5
  Fold: 5.82
  No. of YPG Plate Colonies: 103
CYC1 gene; YMH53 with pYN132
  Average C.E.: 0.03169 ×10^−5
  Fold: 1
CYC1 gene; YMH54, 5 μg oligo
  C.E.: 0.14 ×10^−4
  No. of YPG Plate Colonies: 43
CYC1 gene; YMH55, 5 μg oligo
  C.E.: 0.38 ×10^−4
  No. of YPG Plate Colonies: 116

B4: Cyc1/70NT: modified single-stranded vector targeting the nontranscribed strand of mutant CYC1, three phosphorothioated linkages at each terminus, SEQ ID NO: 22 (nucleic acid)
DNA: dA*dA*dC*dCdTdTdAdTdGdTdGdGdGdCdCdAdCdCdCdTdTdTdTdCdCdAdCdGdGdTdGdTdGdGdCdAdTdTdGdTdAdGdAdCdAdTdCdTdAdGdTdCdTdTdGdAdAdAdAdGdTdGdTdAdGdCdA*dC*dC*dT
CYC1 gene; [5]
  No. of YPG Plate Colonies: lawn
CYC1 gene; YMH52, 5 μg oligo
  C.E.: 0.47 ×10^−4
  No. of YPG Plate Colonies: 186
CYC1 gene; YMH53, 5 μg oligo
  C.E.: 0.21 ×10^−4
  No. of YPG Plate Colonies: 73
CYC1 gene; YMH53 with PYNMRE11 + PYNXRS2
  Average C.E.: 0.322 ×10^−5
  Fold: 57.48
  No. of YPG Plate Colonies: 178
CYC1 gene; YMH53 with PYNRAD52 + PYNRAD54
  Average C.E.: 0.179 ×10^−5
  Fold: 32.01
  No. of YPG Plate Colonies: 109
CYC1 gene; YMH53 with pYN132
  Average C.E.: 0.0056 ×10^−5
  Fold: 1
CYC1 gene; YMH54, 5 μg oligo
  C.E.: 0.28 ×10^−4
  No. of YPG Plate Colonies: 80
CYC1 gene; YMH55, 5 μg oligo
  C.E.: 2.99 ×10^−4
  No. of YPG Plate Colonies: 895
CYC1 gene; [6]
  Average C.E.: 0.04 ×10^−5
  Fold: 1.1
  No. of YPG Plate Colonies: 25
CYC1 gene; [7]
  Average C.E.: 0.52 ×10^−5
  Fold: 14.8
  No. of YPG Plate Colonies: 260
CYC1 gene; [8]
  Average C.E.: 0.22 ×10^−5
  Fold: 6.2
  No. of YPG Plate Colonies: 108
CYC1 gene; [9]
  Average C.E.: 0.09 ×10^−5
  Fold: 2.4
  No. of YPG Plate Colonies: 42
CYC1 gene; [10]
  Average C.E.: 0.78 ×10^−5
  Fold: 22.2
  No. of YPG Plate Colonies: 410
CYC1 gene; YMH55 with PYNXRS2, 5 μg oligo
  Average C.E.: 0.03 ×10^−5
  Fold: 1.34
  No. of YPG Plate Colonies: 22
CYC1 gene; [11]
  Average C.E.: 0.04 ×10^−5
  Fold: 1
  No. of YPG Plate Colonies: 19
CYC1 gene; [12]
  Average C.E.: 0.32 ×10^−5
  Fold: 9.1
  No. of YPG Plate Colonies: 166

B5: beta protein: protein expressed from the bet gene of the Red recombination system of bacteriophage lambda; expressed in yeast from pYNTβ (protein, UniProt P03698 1-261, looked up)
Recombination protein bet: MSTALATLAGKLAERVGMDSVDPQELITTLRQTAFKGDASDAQFIALLIVANQYGLNPWTKEIYAFPDKQNGIVPVVGVDGWSRIINENQQFDGMDFEQDNESCTCRIYRKDRNHPICVTEWMDECRREPFKTREGREITGPWQSHPKRMLRHKAMIQCARLAFGFAGIYDKDEAERIVENTAYTAERQPERDITPVNDETMQEINTLLIALDKTWDDDLLPLCSQIFRRDIRASSELTQAEAVKALGFLKQKAAEQKVAA
CYC1 gene; beta protein expression, other experiments
  correction efficiency per 10^5 transformants: 0.326

B6: βThal2: 71mer with three phosphorothioate linkages at 5′ and 3′ ends directing T to C in β-globin, SEQ ID NO: 28 (nucleic acid)
DNA: dT*dA*dA*dCdGdGdCdAdGdAdCdTdTdCdTdCdCdAdCdAdGdGdAdGdTdCdAdGdGdTdGdCdAdCdCdGdTdGdGdTdGdTdCdTdGdTdTdTdGdAdGdGdTdTdGdCdTdAdGdTdGdAdAdCdAdCdAdG*dT*dT*dG
[4]
  cells with corrected hygromycin also containing the edited β-globin gene: approximately 10%
